# Data reported in patent US20230381130A1 (ATRECA, published 2023).
# Numbering of substitutions follows the chain as printed.
# T1: human FcγRIIa-H (the high-affinity H131 variant) (human, UniProt P12318 34-317)
# T1 sequence (looked up): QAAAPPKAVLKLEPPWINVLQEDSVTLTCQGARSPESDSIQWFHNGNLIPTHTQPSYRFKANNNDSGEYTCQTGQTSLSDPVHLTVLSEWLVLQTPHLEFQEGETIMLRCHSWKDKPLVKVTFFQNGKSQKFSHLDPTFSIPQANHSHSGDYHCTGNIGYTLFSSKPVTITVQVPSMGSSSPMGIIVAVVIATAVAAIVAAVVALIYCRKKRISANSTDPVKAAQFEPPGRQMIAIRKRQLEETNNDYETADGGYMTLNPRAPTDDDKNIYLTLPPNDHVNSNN
# B1: AIP-169752 (antibody, V domains shown)
# VH: EVQLVESGGALVKPGGSLRLSCAASGFTFSKAWMSWVRQAPGKGLEWVGRIKSVTDGETTDYAAPVKGRFTISRDDSKSTLYLQMNSLKTEDTAVYYCTSSFCCRGGGSCPSHDTSYCGGQYKSYYYMDVWGKGTTVTVSS
# VL: QSVLTQPPSASGTPGQRVTISCSGSSSNIGSSSVSWYQQLPGTAPKLLIYKNNQRPSGVPDRFSGSKSGTSASLAISGLRSEDEADYYCSTWDDSLSVRVFGGGTKLTVL
# B2: AIP-191692 (antibody, V domains shown)
# VH: EVQLVESGGALVKPGGSLRLSCAASGFTFSKAWMSWVRQAPGKGLEWVGRIKSVTDGETTDYAAPVKGRFTISRDDSKSTLYLQMNSLKTEDTAVYYCTSSFCCRGGSCPSHDTSYCGGGSGYKSYYYMDVWGKGTTVTVSS
# VL: B1 VL
# B3: AIP-107388 (antibody, V domains shown)
# VH: EVQLVESGGALVKPGGSLRLSCAASGFTFSKAWMSWVRQAPGKGLEWVGRIKSVTDGETTDYAAPVKGRFTISRDDSKSTLYLQMNSLKTEDTAVYYCTSSFCCRGGSCPSHDTSYCGGGQYKSYYYMDVWGKGTTVTVSS
# VL: B1 VL
# B4: AIP-125646 (antibody, V domains shown)
# VH: EVQLVESGGALVKPGGSLRLSCAASGFTFSKAWMSWVRQAPGKGLEWVGRIKSVTDGETTDYAAPVKGRFTISRDDSKSTLYLQMNSLKTEDTAVYYCTSSFCCRGGSCPSHDTSYCGQYKSYYYMDVWGKGTTVTVSS
# VL: B1 VL
# B5: AIP-194564 (antibody, V domains shown)
# VH: B1 VH with G106S
# VL: B1 VL
# B6: AIP-167295 (antibody, V domains shown)
# VH: B4 VH with Q119G, Y120Q, K121Y
# VL: B1 VL
# B7: AIP-182606 (antibody, V domains shown)
# VH: B4 VH with C103S, C117G
# VL: B1 VL
# B8: AIP-131762 (antibody, V domains shown)
# VH: EVQLVESGGALVKPGGSLRLSCAASGFTFSKAWMSWVRQAPGKGLEWVGRIKSVTDGETTDYAAPVKGRFTISRDDSKSTLYLQMNSLKTEDTAVYYCTSSFCGGPSHDTSYCGGQYKSYYYMDVWGKGTTVTVSS
# VL: B1 VL
# B9: AIP-163723 (antibody, V domains shown)
# VH: B4 VH with Q119G, Y120Q
# VL: B1 VL
# B10: AIP-145328 (antibody, V domains shown)
# VH: EVQLVESGGALVKPGGSLRLSCAASGFTFSKAWMSWVRQAPGKGLEWVGRIKSVTDGETTDYAAPVKGRFTISRDDSKSTLYLQMNSLKTEDTAVYYCTSSFCCRGGSGGSCPSHDTSYCGGQYKSYYYMDVWGKGTTVTVSS
# VL: B1 VL
# B11: AIP-114111 (antibody, V domains shown)
# VH: B3 VH with G120Q, Q121Y, Y122K, K123S
# VL: B1 VL
# B12: AIP-185680 (antibody, V domains shown)
# VH: EVQLVESGGALVKPGGSLRLSCAASGFTFSKAWMSWVRQAPGKGLEWVGRIKSVTDGETTDYAAPVKGRFTISRDDSKSTLYLQMNSLKTEDTAVYYCTSSFCCRGGGGSCPSHDTSYCGGQYKSYYYMDVWGKGTTVTVSS
# VL: B1 VL
# Molecular target: T1, human FcγRIIa-H (the high-affinity H131 …)
# Experiment: cell-based or functional assay
Avg ΔActivity Rank,EC50 [nM],Fold ΔActivity,Binder
2,,,B1
2,,,B2
2,,,B3
2.5,446,0.75,B4
2,472,0.58,B5
2,,,B6
2,,,B7
1,,,B8
2,,,B9
2,,,B10
2,258,0.55,B11
1,,,B12
